Results published in patent US20230272028.

Key:
[1] = test system: CTSL1_1 FRET substrate (ALFKSSFP)
[2] = test system: CTSL1_2 8-mer FRET substrate Mca-ALFFSSPPK-Dnp
[3] = test system: CTSL1_2 9-mer FRET substrate Mca-ALFFSSPPSK-Dnp

Sequence of Cathepsin L (CTSL1), recombinant human (chain, as listed by the source): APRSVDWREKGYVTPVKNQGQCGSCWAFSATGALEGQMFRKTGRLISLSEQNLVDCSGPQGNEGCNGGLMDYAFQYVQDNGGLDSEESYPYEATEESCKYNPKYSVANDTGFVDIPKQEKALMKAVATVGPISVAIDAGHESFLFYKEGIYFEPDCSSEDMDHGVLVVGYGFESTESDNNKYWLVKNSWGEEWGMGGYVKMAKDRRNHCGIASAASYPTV
Sequence of ALU30-15 (chain, as listed by the source): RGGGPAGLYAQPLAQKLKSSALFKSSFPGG
Sequence of ALU30-6 (chain, as listed by the source): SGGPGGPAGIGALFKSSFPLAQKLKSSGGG
Sequence of ALU30-18 (chain, as listed by the source): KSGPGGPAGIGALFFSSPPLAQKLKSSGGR
Sequence of ALU30-11 (chain, as listed by the source): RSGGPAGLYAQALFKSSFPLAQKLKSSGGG
Sequence of ALU30-17 (chain, as listed by the source): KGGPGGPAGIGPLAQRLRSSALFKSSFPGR
Sequence of ALU30-13 (chain, as listed by the source): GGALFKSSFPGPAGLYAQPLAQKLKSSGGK
Sequence of ALU30-14 (chain, as listed by the source): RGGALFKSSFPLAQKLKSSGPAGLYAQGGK
Sequence of ALU30-9 (chain, as listed by the source): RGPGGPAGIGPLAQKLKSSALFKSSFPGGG
Sequence of ALU30-5 (chain, as listed by the source): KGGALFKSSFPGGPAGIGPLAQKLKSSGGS
Sequence of ALU30-10 (chain, as listed by the source): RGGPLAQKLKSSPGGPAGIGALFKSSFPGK
Sequence of ALU30-1 (chain, as listed by the source): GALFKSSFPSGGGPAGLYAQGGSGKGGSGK
Sequence of ALU30-16 (chain, as listed by the source): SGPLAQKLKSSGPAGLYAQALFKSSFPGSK
Sequence of ALU30-8 (chain, as listed by the source): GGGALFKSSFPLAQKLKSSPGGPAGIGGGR
Sequence of ALU30-12 (chain, as listed by the source): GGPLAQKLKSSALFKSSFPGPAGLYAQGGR
Sequence of ALU30-7 (chain, as listed by the source): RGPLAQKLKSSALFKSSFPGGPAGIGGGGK

Cathepsin L (CTSL1), recombinant human
30-mer peptide degradation by recombinant enzyme (MSP-MS) (ALU30-10): The most efficiently cleaved peptides were those containing the FAPa_1, CTSL1_1 and ADAM17_2 motifs, in multiple orders
30-mer peptide degradation by recombinant enzyme (MSP-MS) (ALU30-11): Peptides bearing the MMP14_1 motif with CTSL1_1 and ADAM17_2 were slightly lower efficiency
30-mer peptide degradation by recombinant enzyme (MSP-MS) (ALU30-12): Peptides bearing the MMP14_1 motif with CTSL1_1 and ADAM17_2 were slightly lower efficiency
30-mer peptide degradation by recombinant enzyme (MSP-MS) (ALU30-13): Peptides bearing the MMP14_1 motif with CTSL1_1 and ADAM17_2 were slightly lower efficiency
30-mer peptide degradation by recombinant enzyme (MSP-MS) (ALU30-14): Peptides bearing the MMP14_1 motif with CTSL1_1 and ADAM17_2 were slightly lower efficiency
30-mer peptide degradation by recombinant enzyme (MSP-MS) (ALU30-15): Peptides bearing the MMP14_1 motif with CTSL1_1 and ADAM17_2 were slightly lower efficiency
comparison of cleavage efficiencies across the 30-mer library (ALU30-15): it had slightly higher hepsin susceptibility and lower CTSL1 activity
30-mer peptide degradation by recombinant enzyme (MSP-MS) (ALU30-16): Peptides bearing the MMP14_1 motif with CTSL1_1 and ADAM17_2 were slightly lower efficiency
30-mer peptide degradation by recombinant enzyme (MSP-MS) (ALU30-17): CTSL1 treatment of the 30-mer peptide library produced cleavages in all peptides bearing a CTSL1_1 or CTSL1_2 motif
30-mer peptide cleavage (mass spectrometry) (ALU30-18): Both peptides showed rapid disappearance of substrate (squares) and product formation from cleavage at the target scissile bond
30-mer peptide degradation by recombinant enzyme (MSP-MS) (ALU30-18): CTSL1 treatment of the 30-mer peptide library produced cleavages in all peptides bearing a CTSL1_1 or CTSL1_2 motif
30-mer peptide degradation by recombinant enzyme (MSP-MS) (ALU30-1): CTSL1 treatment of the 30-mer peptide library produced cleavages in all peptides bearing a CTSL1_1 or CTSL1_2 motif
30-mer peptide degradation by recombinant enzyme (MSP-MS) (ALU30-5): The most efficiently cleaved peptides were those containing the FAPa_1, CTSL1_1 and ADAM17_2 motifs, in multiple orders
30-mer peptide cleavage (mass spectrometry) (ALU30-6): Both peptides showed rapid disappearance of substrate (squares) and product formation from cleavage at the target scissile bond
30-mer peptide degradation by recombinant enzyme (MSP-MS) (ALU30-6): The most efficiently cleaved peptides were those containing the FAPa_1, CTSL1_1 and ADAM17_2 motifs, in multiple orders
30-mer peptide degradation by recombinant enzyme (MSP-MS) (ALU30-7): The most efficiently cleaved peptides were those containing the FAPa_1, CTSL1_1 and ADAM17_2 motifs, in multiple orders
30-mer peptide degradation by recombinant enzyme (MSP-MS) (ALU30-8): The most efficiently cleaved peptides were those containing the FAPa_1, CTSL1_1 and ADAM17_2 motifs, in multiple orders
30-mer peptide degradation by recombinant enzyme (MSP-MS) (ALU30-9): The most efficiently cleaved peptides were those containing the FAPa_1, CTSL1_1 and ADAM17_2 motifs, in multiple orders
FRET substrate cleavage by recombinant enzyme [1]: CTSL1 cleaves the FRET substrate bearing the CTSL1_1 motif highly efficiently
FRET substrate cleavage by recombinant enzyme [2]: the new CTSL1_2 motif was not cleaved in the context of an 8-mer FRET peptide
FRET substrate cleavage by recombinant enzyme [3]: This 9-mer FRET substrate bearing the CTSL1_2 motif produced comparable catalytic efficiency to the CTSL1_1 motif
